According to the RNAGym collection of RNA variant scans (doi:10.7554/elife.80360):

B1: Hammerhead Ribozyme (parent)
chain: ACCGGAUGUGCUUUCCGGUCUGAUGAGUCCGUGAGGACGAAACAG

Variants of: B1
Test: self-cleavage, relative activity (ratio to wild type); higher = more cleavage; co-transcriptional

In order of rising self-cleavage:
1. C38G A40C  0.211
2. C38G A42C  0.226
3. G36A A41U  0.279
4. A37C C43G  0.28
5. A37C G39U  0.281
6. G36U A40U  0.281
7. C38G G39A  0.285
8. G36U A40G  0.29
9. G36C A41U  0.294
10. A37C G39A  0.295
11. G36C A44U  0.296
12. C38G A41C  0.298
13. A37C C43A  0.301
14. C38G A40U  0.301
15. G35U A41C  0.305
16. G36A A44C  0.31
17. G35U A41U  0.311
18. C38A G39U  0.315
19. A37C G39C  0.316
20. C38G A41U  0.316
21. C38G A42G  0.321
22. C38A G39A  0.325
23. C38G G39C  0.326
24. A37U G39C  0.326
25. G35U A41G  0.33
26. G35U G39A  0.331
27. G36A A44U  0.332
28. G35U A40G  0.342
29. G36A C38G  0.342
30. G35U G39C  0.344
31. G36A A41G  0.344
32. C38A G45C  0.344
33. G36A C38A  0.345
34. C38G A42U  0.354
35. C38G A40G  0.357
36. A37U G39U  0.362
37. G36C A41C  0.364
38. G35U A40U  0.366
39. G36C G45U  0.367
40. G35U A40C  0.374
41. G35U C38G  0.374
42. G36C G45A  0.374
43. G35U C43A  0.378
44. A37C C38G  0.381
45. G36A A41C  0.382
46. G36C A44C  0.383
47. A37U G39A  0.386
48. G35A C38G  0.387
49. A37C C43U  0.392
50. G36C G45C  0.393
51. C38A G39C  0.4
52. G35C G36U  0.401
53. C38G G39U  0.402
54. G35U C38A  0.404
55. C38G A41G  0.404
56. A34U A37U  0.412
57. G35U G39U  0.42
58. G35C G36C  0.425
59. G35A G36U  0.427
60. G36U A40C  0.43
61. G36C A41G  0.449
62. C38A G45U  0.461
63. G35U G36U  0.463
64. C38A G45A  0.464
65. G35U G36C  0.476
66. A37U G45U  0.48
67. G35A C38A  0.482
68. G35A G36C  0.484
69. G35C G36A  0.504
70. G35A G36A  0.508
71. G35U G36A  0.525
72. G36A C38U  0.531
73. A37C C38A  0.535
74. A37C C38U  0.546
75. A34U A37C  0.572
76. G35A C38U  0.587
77. G36C A44G  0.588
78. G36A A44G  0.75
79. A34U A37G  0.757
80. G35U C38U  0.775
81. G35C  0.791
82. G35A  0.798
83. G35U  0.817
84. A34U  0.926
